Laboratory results: patent US20220033501A1 (SHANGHAI PHARMAEXPLORER, published 2022)

T1: human TIM-3 extracellular domain protein with hFc tag (hTIM-3-hFc) (human, UniProt Q8TDQ0 22-200)
T1 construct: not shown: human IgG Fc fragment (hFc) of the pCpC vector
T1 sequence: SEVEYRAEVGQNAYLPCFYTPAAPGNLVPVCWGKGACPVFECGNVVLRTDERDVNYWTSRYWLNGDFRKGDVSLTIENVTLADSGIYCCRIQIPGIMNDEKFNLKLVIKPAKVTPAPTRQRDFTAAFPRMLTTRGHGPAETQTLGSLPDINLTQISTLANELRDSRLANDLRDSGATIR

T2: human TIM-3, full length, on cells (human, UniProt Q8TDQ0 22-301)
T2 construct: Also used here for native TIM-3 on PBMC in the functional rows; also called CHOK1-hTIM-3; HEK293-h TIM-3
T2 sequence: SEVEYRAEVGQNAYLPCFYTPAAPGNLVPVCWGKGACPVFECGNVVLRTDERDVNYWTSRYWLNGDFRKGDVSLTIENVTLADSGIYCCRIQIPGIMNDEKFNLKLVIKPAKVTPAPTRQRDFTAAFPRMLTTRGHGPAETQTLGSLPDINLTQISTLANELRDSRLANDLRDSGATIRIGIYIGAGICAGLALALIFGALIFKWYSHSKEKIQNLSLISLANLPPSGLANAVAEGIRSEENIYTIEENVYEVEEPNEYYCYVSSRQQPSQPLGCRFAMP


Legend:
[1] = target: T1, human TIM-3 extracellular domain …; test: FACS, blocking of hTIM-3-hFc binding to phosphatidylserine on apoptotic Jurkat cells, 0 nM antibody
Protocol: (§1) Jurkat cells were treated with 1 μM staurosporine at 37° C. for 2 hours to induce apoptosis. The presence of phosphatidylserine was detected by Annexin V-FITC cell apoptosis detection kit. […] The cells were washed 1-2 times with PBS buffer, and after cell counting, the cells were diluted to 1-2×10⁶ cells per milliliter with binding buffer, and added to a 96-well FACS reaction plate at 100 microliters per well. The antibody sample to be tested and 2 μg/ml hTIM-3-hFc protein were prepared with binding buffer, and mixed equally in volume. The mixture was incubated at room temperature for 30 minutes, then the FACS reaction plate incubated with apoptotic cells was centrifuged to discard the supernatant, and the above mixture was added to the apoptotic cells at 100 microliters per well and incubated at room temperature for 1 hour. The plate was washed twice with the binding buffer by centrifugation, added with 100 microliters of fluorescent (Alexa 488)-labeled secondary antibodies per well, and incubated for half an hour. The plate was washed 2-3 times with the binding buffer by centrifugation, added with 100 microliters of PBS per well to suspend cells, and detected using FACS (FACS Calibur, BD) and the results were analyzed. The results are shown in Table 15 and FIG. 15, wherein the IgG control is human IgG, and the data in the table is the inhibition rate (%).

[2] = target: T1, human TIM-3 extracellular domain …; test: FACS, blocking of hTIM-3-hFc binding to phosphatidylserine on apoptotic Jurkat cells, 0.823 nM antibody
Protocol: as §1

[3] = target: T1, human TIM-3 extracellular domain …; test: FACS, blocking of hTIM-3-hFc binding to phosphatidylserine on apoptotic Jurkat cells, 2.469 nM antibody
Protocol: as §1

[4] = target: T1, human TIM-3 extracellular domain …; test: FACS, blocking of hTIM-3-hFc binding to phosphatidylserine on apoptotic Jurkat cells, 200 nM antibody
Protocol: as §1

[5] = target: T1, human TIM-3 extracellular domain …; test: FACS, blocking of hTIM-3-hFc binding to phosphatidylserine on apoptotic Jurkat cells, 22.222 nM antibody
Protocol: as §1

[6] = target: T2, human TIM-3, full length, on cells; test: FACS, CHOK1-hTIM-3 cells; antibody 0.013 nM
Source text: (§2) The pIRES plasmid containing the full-length nucleotide sequence encoding human TIM-3 as described in Example 1 was transfected into CHOK1 cell line to obtain a CHOK1 stable cell line containing human TIM-3 (herein referred to as CHOK1-hTIM-3 stable cell line). The pIRES plasmid containing the full-length gene of monkey TIM-3 was transfected into CHOK1 cell line to construct a CHOK1 stable cell line containing monkey TIM-3 (herein referred to as CHOK1-cTIM-3 stable cell line). The CHOK1-hTIM-3 stable cell line and CHOK1-cTIM-3 stable cell line were expanded to a confluence of 90% in a T-75 cell culture flask. The medium was aspirated, and the cells were washed with HBSS (Hanks' Balanced Salt Solution) 1-2 times, and then treated with an enzyme-free cell dissociation solution (Versene solution: Life technology) and the cells were collected. The cells were washed with HBSS buffer for 1-2 times. After counted, the cells were diluted with HBSS to 1-2×10⁶ cells per ml, added with 1% goat serum blocking solution, incubated on ice for 20-30 minutes, and then washed with HBSS by centrifugation 2 times. The collected cells were suspended in the FACS buffer (HBSS+1% BSA) to 2×10⁶ cells/ml, added as 100 microliters per well to a 96-well FACS reaction plate, added with 100 microliters per well of the antibody sample to be tested, incubated on ice for 1-2 hours. The plate was washed twice with the FACS buffer by centrifugation, added with 100 microliters of fluorescent (Alexa 488)-labeled secondary antibodies per well, and incubated on ice for 0.5-1.0 hours. The plate was washed 2-3 times with FACS buffer by centrifugation, added with 100 μl fixative solution (4% Paraformaldehyde) per well to suspend the cells. 5-10 minutes later, it was washed 1-2 times with FACS buffer by centrifugation. The cells were suspended with 100 microliters of FACS buffer, FACS (FACSCalibur, BD) was used for detection and the results were analyzed. The results are shown in FIGS. 7 and 8, Tables 7 and 8, wherein the IgG control is rat IgG, and the data in the table are the average fluorescence intensity values of the cell populations measured by MFI.

[7] = target: T2, human TIM-3, full length, on cells; test: FACS, CHOK1-hTIM-3 cells; antibody 0.064 nM
Source text: as §2

[8] = target: T2, human TIM-3, full length, on cells; test: FACS, CHOK1-hTIM-3 cells; antibody 0 nM (blank)
Source text: as §2

[9] = target: T2, human TIM-3, full length, on cells; test: FACS, CHOK1-hTIM-3 cells; antibody 8 nM
Source text: as §2

[10] = target: T2, human TIM-3, full length, on cells; test: FACS, CHOK1-hTIM-3 cells; antibody 200 nM
Source text: as §2

Binder | Inhibition ratio (%) [1] [%] | Inhibition ratio (%) [2] [%] | Inhibition ratio (%) [3] [%] | Inhibition ratio (%) [4] [%] | Inhibition ratio (%) [5] [%] | Mean fluorescence intensity [6] | Mean fluorescence intensity [7] | Mean fluorescence intensity [8] | Mean fluorescence intensity [9] | Mean fluorescence intensity [10]
7A4F10 fully human TIM-3 antibody (human IgG4, kappa) (antibody, V domains shown) VH: EVQLLESGGGLVQPGGSLRLSCAASGFTFRTHLISWVRQAPGKGLEWVAAITGSGGSTYYADSVKGRFIISRDNSKNTLFLQMNSLRAEDTAVYYCAKDGGSGSYDDFWGQGTLVTVSS VL: ETVLTQSPVTLSLSPGERATLSCRASQSVGSYLAWYQQKPGQAPRLLIYDASNRATGIPARFSGSGSGTDFTLTISSLEPEDFAVYYCQQRSNWPPTFGQGTKVEIK | 0.5 | 5.7 | 23.7 | 56.9 | 62.1 | – | – | – | – | –
7A4F10 (TIM-3 antibody purified from hybridoma, chimeric antibody of Example 2) (antibody, V domains shown, From hybridoma of Harbour H2L2 transgenic mice: human variable regions, rat constant regions) VH: EVQLLESGGGLVQPGGSLRLSCAASGFTFRTHLISWVRQAPGKGLEWVAAITGSGGSTYYADSVKGRFIISRDNSKNTLFLQMNSLRAEDTAVYYCAKDGGSGSYDDFWGQGTLVTVSS VL: ETVLTQSPVTLSLSPGERATLSCRASQSVGSYLAWYQQKPGQAPRLLIYDASNRATGIPARFSGSGSGTDFTLTISSLEPEDFAVYYCQQRSNWPPTFGQGTKVEIK | – | – | – | – | – | 3.3 | 4.3 | 2.9 | 56.2 | 145
18D2H2 (TIM-3 antibody purified from hybridoma, chimeric antibody of Example 2) (antibody, V domains shown, From hybridoma of Harbour H2L2 transgenic mice: human variable regions, rat constant regions) VH: EVQLVESGGDLVQPGGSLRLSCAASGFTFSTYWMTWVRQAPGRGLEWVANIKQDGSAKYYVDSVKGRFTLSRDDAKNSLYLQMNSLRAEDTAVYYCARGSNWFDYWGQGTLVTVSS VL: ETVMTQSPATLSVSPGERATLSCRANQNVYSNLAWYQQKPGQAPRLLIYDASTRATGFPARFSGSGSGTEFTLTISSLQSEDFAVYYCQQYNNWPLTFGGGTKVEIK | – | – | – | – | – | 4.2 | 6.6 | 2.9 | 107 | 212
18D2H2 fully human TIM-3 antibody (human IgG4, kappa) (antibody, V domains shown) VH: EVQLVESGGDLVQPGGSLRLSCAASGFTFSTYWMTWVRQAPGRGLEWVANIKQDGSAKYYVDSVKGRFTLSRDDAKNSLYLQMNSLRAEDTAVYYCARGSNWFDYWGQGTLVTVSS VL: ETVMTQSPATLSVSPGERATLSCRANQNVYSNLAWYQQKPGQAPRLLIYDASTRATGFPARFSGSGSGTEFTLTISSLQSEDFAVYYCQQYNNWPLTFGGGTKVEIK | 1.4 | 3.9 | 27.4 | 56.1 | 63.9 | – | – | – | – | –

The remaining lines, values ahead:

Inhibition ratio (%) [1] [%] | Inhibition ratio (%) [2] [%] | Inhibition ratio (%) [3] [%] | Inhibition ratio (%) [4] [%] | Inhibition ratio (%) [5] [%] | Mean fluorescence intensity [6] | Mean fluorescence intensity [7] | Mean fluorescence intensity [8] | Mean fluorescence intensity [9] | Mean fluorescence intensity [10] | Binder
1.6 | -4.4 | 5.8 | 52.1 | 61.8 | – | – | – | – | – | 215A8F2 fully human TIM-3 antibody (human IgG4, kappa) (antibody, V domains shown) VH: QVQLQQWGAGLLKPSETLSLTCTVYGGSFSGYYWNWIRQPPGKGLEWLGEINHSGSTNYNPSLKRRVTISVDTSKNQFSLKLSSVTAADTAVYYCARVYYYGPFDFWGQGTLVTVSS VL: not shown
– | – | – | – | – | 8.6 | 18.7 | 3 | 608 | 613 | 215A8F2 (TIM-3 antibody purified from hybridoma, chimeric antibody of Example 2) (antibody, V domains shown, From hybridoma of Harbour H2L2 transgenic mice: human variable regions, rat constant regions) VH: QVQLQQWGAGLLKPSETLSLTCTVYGGSFSGYYWNWIRQPPGKGLEWLGEINHSGSTNYNPSLKRRVTISVDTSKNQFSLKLSSVTAADTAVYYCARVYYYGPFDFWGQGTLVTVSS VL: not shown
5.5 | 6.1 | 10.9 | 37.6 | 58.4 | – | – | – | – | – | 134H3G6 fully human TIM-3 antibody (human IgG4, kappa) (antibody, V domains shown) VH: EVQLVESGGGLVQPGGSLRLSCAASGFTFSNSWMTWVRQAPGKGLEWVANIKQAGTEKYYVDSVKGRFTISRDNAKNSLYLQMNSLRAEDTAVYYCNSGSNYFDYWGQGTLVTVSS VL: EIVMTQSPATLSVSPGERATLSCRARQNFYSNLAWYQQKPGQAPRLLIYGASTRATGIPARFSGSGSGTEFTLTISSLQSEDFAVYYCQQYNNWPLTFGGGTKVEIK
– | – | – | – | – | 4.7 | 8.2 | 3 | 139 | 261 | 134H3G6 (TIM-3 antibody purified from hybridoma, chimeric antibody of Example 2) (antibody, V domains shown, From hybridoma of Harbour H2L2 transgenic mice: human variable regions, rat constant regions) VH: EVQLVESGGGLVQPGGSLRLSCAASGFTFSNSWMTWVRQAPGKGLEWVANIKQAGTEKYYVDSVKGRFTISRDNAKNSLYLQMNSLRAEDTAVYYCNSGSNYFDYWGQGTLVTVSS VL: EIVMTQSPATLSVSPGERATLSCRARQNFYSNLAWYQQKPGQAPRLLIYGASTRATGIPARFSGSGSGTEFTLTISSLQSEDFAVYYCQQYNNWPLTFGGGTKVEIK
– | – | – | – | – | 21.2 | 58.1 | 2.9 | 478 | 485 | 57F4E5 (TIM-3 antibody purified from hybridoma, chimeric antibody of Example 2) (antibody, V domains shown, From hybridoma of Harbour H2L2 transgenic mice: human variable regions, rat constant regions) VH: EVQLVESGGGLVQPGGSLRLSCAASGFTFSSYWMSWVRQAPGKGLEWVANIKQDGSEKYYVDSVKGRFTISRDSAKNSLYLQMNSLRAEDTAMYFCARDSNFFDYWGQGTLVTVSS VL: ETVMTQSPATLSVSPGERATLSCRASQSVSSNLAWYQRKPGQAPRLLIYFSSTRATGIPARFSGSGSGTEFTLTISSLQSEDFAVYYCQQYNNWPLTFGGGTKVEIK
